{"source": "patent US20250340646A1", "binders": {"B1": {"name": "2018EP164-F04 scFv (scFv, part only; not given: linker and tags, not shown: small tags and cut ends)", "scFv, part": "QVQLQQWGAGLLKPSETLSLTCAVYGGSFSGYYWSWIRQPPGKGLEWIGEINHSGSTNYNPSLKSRVTISVDTSKNQFSLKLSSVTAADTAVYYCARGRRLRYFDWAAYNWFDPWGQGTLVTVSSQSALTQDPAVSVALGQTVRITCQGDSLRSHYASWYQQKPGQAPVVVVYDNSDRPSGIPDRFSGSNSGNTATLTISRVEVGDEADYYCQVWDSSSDHYVFGTGTKV"}, "B2": {"name": "2018EP161-F04 scFv (scFv, part only; not given: linker and tags, not shown: small tags and cut ends)", "scFv, part": "QMQLVQSGAEVKKPGATVKISCKVSGYTFTDYYMHWVQQAPGKGLEWMGLVDPEDGETIYAEKFQGRVTITADTSTDTAYMELSSLRSEDTAVFYCATDGSGSYYLTLGQGTLVTVSSNFMLTQPSSLSASPGASASLTCTLPSGINVGPYGIFWYQQKPGSPPQYLLRYKSNSENHQGSGVPSRFSGSEDASANVGILLISGLQSEDEADYYCMIWHSSAWVFGGGTKVTVL"}}, "key": {"[1]": {"target": "PD-L1 on PD-L1 aAPC/CHOK1 cells (Promega J1250)", "assay": "cell-based or functional assay"}, "human PD-L1-Fc (human) [2]": {"target": "human PD-L1-Fc (human) (UniProt Q9NZQ7)", "assay": "SPR, PD-L1-Fc captured, scFv analyte"}, "[3]": {"target": "PD-L1 biotinylated (PD-1/PD-L1 TR-FRET assay kit, BPS 72038) (Homo sapiens (Human)) (UniProt Q9NZQ7)", "assay": "HTRF competition, competitor PD-1-Eu"}, "human PD-L1-Fc (human) [4]": {"target": "human PD-L1-Fc (human) (UniProt Q9NZQ7)", "assay": "ELISA, coated PD-L1-Fc, anti-FLAG HRP"}, "[5]": {"target": "full-length human PD-L1 on K562 cells (human) (UniProt Q9NZQ7)", "assay": "FACS, PD-L1/K562 cells"}}}
{"binder": "B1", "values": [{"measurement": "Jurkat NFAT reporter assay EC50", "setting": "[1]", "result": 129, "unit": "nM"}, {"measurement": "Kd", "setting": "human PD-L1-Fc (human) [2]", "result": 2.94, "unit": "nM"}, {"measurement": "koff", "setting": "human PD-L1-Fc (human) [2]", "result": 0.000722, "unit": "s⁻¹"}, {"measurement": "kon", "setting": "human PD-L1-Fc (human) [2]", "result": 245000, "unit": "M⁻¹ s⁻¹"}, {"measurement": "IC50", "setting": "[3]", "result": 173, "unit": "nM"}, {"measurement": "EC50", "setting": "human PD-L1-Fc (human) [4]", "result": 1.27, "unit": "nM"}]}
{"binder": "B2", "values": [{"measurement": "EC50", "setting": "[5]", "result": 5.8, "unit": "nM"}]}
